From publication PMC10786891, “Massively parallel profiling of RNA-targeting CRISPR-Cas13d”
Changes are numbered by the printed parent chain. In names and notes the source's numbering stands.

T1: EsCas13d, nuclease-dead (Eubacterium siraeum, UniProt B0MS50, R295A;H300A;R849A;H854A)
T1 sequence: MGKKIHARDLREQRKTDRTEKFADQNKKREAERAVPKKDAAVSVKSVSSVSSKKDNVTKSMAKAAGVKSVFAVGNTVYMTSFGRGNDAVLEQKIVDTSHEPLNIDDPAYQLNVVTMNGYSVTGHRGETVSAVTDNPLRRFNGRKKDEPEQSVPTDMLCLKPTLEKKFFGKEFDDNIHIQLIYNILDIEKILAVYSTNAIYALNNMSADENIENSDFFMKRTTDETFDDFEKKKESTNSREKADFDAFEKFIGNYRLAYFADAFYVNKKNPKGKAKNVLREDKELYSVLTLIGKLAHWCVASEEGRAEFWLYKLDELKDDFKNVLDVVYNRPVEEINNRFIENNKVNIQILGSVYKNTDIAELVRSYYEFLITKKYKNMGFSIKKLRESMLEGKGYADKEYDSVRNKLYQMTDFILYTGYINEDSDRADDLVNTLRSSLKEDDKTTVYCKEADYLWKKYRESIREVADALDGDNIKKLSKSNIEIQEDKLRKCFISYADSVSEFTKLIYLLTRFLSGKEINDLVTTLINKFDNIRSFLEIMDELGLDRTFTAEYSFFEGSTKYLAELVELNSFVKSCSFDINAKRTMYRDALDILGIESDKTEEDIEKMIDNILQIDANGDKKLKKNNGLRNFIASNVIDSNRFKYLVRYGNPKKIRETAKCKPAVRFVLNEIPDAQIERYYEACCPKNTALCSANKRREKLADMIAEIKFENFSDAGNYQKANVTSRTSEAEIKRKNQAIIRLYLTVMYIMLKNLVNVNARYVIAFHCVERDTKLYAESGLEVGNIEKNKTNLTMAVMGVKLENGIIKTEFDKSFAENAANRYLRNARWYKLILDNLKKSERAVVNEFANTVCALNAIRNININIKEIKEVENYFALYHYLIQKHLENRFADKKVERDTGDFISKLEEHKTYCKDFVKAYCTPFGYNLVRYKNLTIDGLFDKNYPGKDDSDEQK

B1: target 1 insC 3' of 14,insC 3' of 10 (mixed)
RNA 1: CACCCGUGCAAAAAUGCAGGGGUCUAAAACUGAGCGGAUAACCUCUCUAUGG
RNA 2: GGGAAUGGAUCCACAUCUACGAAUUCGUACCAUAGAGACGGUUCAUCCGCUCACCGAGAUCGGAAGAGCACACGU
B2: target 1 U11G,A16G (mixed)
RNA 1: B1 RNA 1
RNA 2: GGGAAUGGAUCCACAUCUACGAAUUCGUACCAUAGGGAGGGUAUCCGCUCACCGAGAUCGGAAGAGCACACGU
B3: target 1 complement block 5-12 (mixed)
RNA 1: B1 RNA 1
RNA 2: B2 RNA 2 with G36A, G40C, G41A, U42A, A43U, U44A, C45G, C46G, G47C
B4: target 1 insC 3' of 10,insU 3' of 4 (mixed)
RNA 1: B1 RNA 1
RNA 2: B1 RNA 2 with C39G, G41U, U43C, C44A, A45U, U46C, C48G, G49C, C50U
B5: target 1 insA 3' of 17,insC 3' of 16 (mixed)
RNA 1: B1 RNA 1
RNA 2: B1 RNA 2 with G37A, A38C, C39G, G40A, U42G, C44U
B6: target 1 A1G,U8G (mixed)
RNA 1: B1 RNA 1
RNA 2: B2 RNA 2 with G36A, G41U, U44G, A51G
B7: target 1 insA 3' of 8,insU 3' of 7 (mixed)
RNA 1: B1 RNA 1
RNA 2: B1 RNA 2 with C39G, G41U, U43A, C44U, U46C, C47U
B8: target 1 insC 3' of 22,insA 3' of 15 (mixed)
RNA 1: B1 RNA 1
RNA 2: GGGAAUGGAUCCACAUCUACGAAUUCGUACCCAUAGAGAAGGUUAUCCGCUCACCGAGAUCGGAAGAGCACACGU
B9: target 1 insU 3' of 22,insG 3' of 4 (mixed)
RNA 1: B1 RNA 1
RNA 2: B8 RNA 2 with C31U, A40G, G42U, U44A, A45U, U46C, C48G, G49C, C50G
B10: target 1 U19G,A20U (mixed)
RNA 1: B1 RNA 1
RNA 2: B2 RNA 2 with A32U, U33G, G36A, G41U
B11: target 1 insU 3' of 9,insC 3' of 9 (mixed)
RNA 1: B1 RNA 1
RNA 2: B1 RNA 2 with C39G, G41U, U43A, C44U, A45C
B12: target 1 complement block 7-10 (mixed)
RNA 1: B1 RNA 1
RNA 2: B2 RNA 2 with G36A, G41U, U42A, A43U, U44A, C45G
B13: target 1 C4A,A9C (mixed)
RNA 1: B1 RNA 1
RNA 2: B2 RNA 2 with G36A, G41U, A43C, C48A
B14: target 1 insU 3' of 21,insA 3' of 17 (mixed)
RNA 1: B1 RNA 1
RNA 2: B8 RNA 2 with C32U, G38A, A39G
B15: target 1 insG 3' of 22,insU 3' of 6 (mixed)
RNA 1: B1 RNA 1
RNA 2: B8 RNA 2 with C31G, A40G, G42U, U44A, A45U, U46C, C48U
B16: target 1 C2A,A9G (mixed)
RNA 1: B1 RNA 1
RNA 2: B2 RNA 2 with G36A, G41U, A43G, C50A
B17: target 1 U3C,U10G (mixed)
RNA 1: B1 RNA 1
RNA 2: B2 RNA 2 with G36A, G41U, U42G, U49C
B18: target 1 insU 3' of 7,insC 3' of 3 (mixed)
RNA 1: B1 RNA 1
RNA 2: B1 RNA 2 with C39G, G41U, U43A, C44U, A45C, C48G, G49C, C50U, U51C
B19: target 1 insG 3' of 18,insG 3' of 18 (mixed)
RNA 1: B1 RNA 1
RNA 2: B1 RNA 2 with A36G, C39G, G40A, U42G, C44U
B20: target 1 C7A,A14U (mixed)
RNA 1: B1 RNA 1
RNA 2: B2 RNA 2 with G36A, A38U, G41U, C45A
B21: target 1 insU 3' of 9,insU 3' of 4 (mixed)
RNA 1: B1 RNA 1
RNA 2: B1 RNA 2 with C39G, G41U, U43A, C44U, A45U, U46C, C48G, G49C, C50U
B22: target 1 insA 3' of 17,insG 3' of 7 (mixed)
RNA 1: B1 RNA 1
RNA 2: B1 RNA 2 with G37A, A38G, C39A, C44A, A45U, U46C, C47G
B23: target 1 insU 3' of 21,insU 3' of 7 (mixed)
RNA 1: B1 RNA 1
RNA 2: B8 RNA 2 with C32U, A40G, G42U, U44A, A45U, U46C, C47U
B24: target 1 insC 3' of 22,insU 3' of 12 (mixed)
RNA 1: B1 RNA 1
RNA 2: B8 RNA 2 with A40G, G42U
B25: target 1 U11C,C22A (mixed)
RNA 1: B1 RNA 1
RNA 2: B2 RNA 2 with C30A, G36A, G41C
B26: target 1 insU 3' of 18,insC 3' of 10 (mixed)
RNA 1: B1 RNA 1
RNA 2: B1 RNA 2 with G35U, A36G, G37A, A38G, C39A
B27: target 1 C6U,G13A (mixed)
RNA 1: B1 RNA 1
RNA 2: B2 RNA 2 with G36A, G39A, G41U, C46U
B28: target 1 insU 3' of 5,insU 3' of 2 (mixed)
RNA 1: B1 RNA 1
RNA 2: GGGAAUGGAUCCACAUCUACGAAUUCGUACCAUAGAGAGGUUAUCCGUCUCUACCGAGAUCGGAAGAGCACACGU
B29: target 1 U3G,C4U (mixed)
RNA 1: B1 RNA 1
RNA 2: B2 RNA 2 with G36A, G41U, C48U, U49G

These binders were tested against T1, EsCas13d, nuclease-dead (assay: crRNA (strand 1, pre-loaded); Mg2+; 40 mM Tris-HCl pH 7.5, 150 mM NaCl, 6 mM MgCl2, 1 mM DTT, 0.1% Tween-20, 0.2 mg/ml BSA; 25 C; 10 min per concentration, then washed). Details: tags: His6-TwinStrep-SUMO cleaved; N-terminal SNAP kept (SNAP-Surface 488); label: 3' end held by stalled T7 RNA polymerase.

Row | Binder | Kd [nM]
1 | B1 | 55 ± 22
2 | B2 | 53 ± 6
3 | B3 | 15.8 ± 1.5
4 | B4 | 12.7 ± 1.1
5 | B5 | 11.6 ± 0.7
6 | B6 | 24.5 ± 1.8
7 | B7 | 12.8 ± 0.5
8 | B8 | 10.9 ± 0.8
9 | B9 | 22.3 ± 1.5
10 | B10 | 96 ± 35
11 | B11 | 21.5 ± 1.6
12 | B12 | 11.7 ± 0.7
13 | B13 | 7.1 ± 0.7
14 | B14 | ~100
15 | B15 | 49 ± 7
16 | B16 | 11.7 ± 0.9
17 | B17 | 26 ± 2.7
18 | B18 | 15.6 ± 0.7
19 | B19 | 48 ± 4
20 | B20 | 39 ± 3.5
21 | B21 | 14.3 ± 1.2
22 | B22 | 11.5 ± 0.6
23 | B23 | 54 ± 4
24 | B24 | 16.8 ± 1.2
25 | B25 | 21.3 ± 1.5
26 | B26 | 65 ± 24
27 | B27 | 9 ± 1.1
28 | B28 | 14.8 ± 1.3
29 | B29 | 7.2 ± 0.6
